Reference: patent publication US20140087995A1 (published 2014)
Numbered stars: 1 amine (or outer) side, 2 acyl side, 3 side chain; on linkers, the order of the positions; unused ones are H or OH. Bridge positions count the residues as written; N and C are the ends. Side chains are listed from the residue outwards. Ends that are not written are not given here. * marks the point of attachment. C20 diacid = O=C(O)CCCCCCCCCCCCCCCCCCC(=O)*; γGlu = O=C(O)[C@H](CCC(=O)[*:2])N[*:1]

B1: N^ε1-[(4S)-4-carboxy-4-[[(4S)-4-carboxy-4-(19-carboxynonadecanoylamino)butanoyl]amino]butanoyl]-[Asp14,Arg17,Pro21,Pro27,Asp35]-h-amylin (peptide)
peptide: K([γGlu-γGlu-C20 diacid])CNTATCATQRLADFLRHSSPNFGAIPSSTNVGSDTY-NH2
modifications: disulfide 2-7; N-terminus assumed
SMILES: CC[C@H](C)[C@H](NC(=O)[C@H](C)NC(=O)CNC(=O)[C@H](Cc1ccccc1)NC(=O)[C@H](CC(N)=O)NC(=O)[C@@H]1CCCN1C(=O)[C@H](CO)NC(=O)[C@H](CO)NC(=O)[C@H](Cc1c[nH]cn1)NC(=O)[C@H](CCCNC(=N)N)NC(=O)[C@H](CC(C)C)NC(=O)[C@H](Cc1ccccc1)NC(=O)[C@H](CC(=O)O)NC(=O)[C@H](C)NC(=O)[C@H](CC(C)C)NC(=O)[C@H](CCCNC(=N)N)NC(=O)[C@H](CCC(N)=O)NC(=O)[C@@H](NC(=O)[C@H](C)NC(=O)[C@@H]1CSSC[C@H](NC(=O)[C@@H](N)CCCCNC(=O)CC[C@H](NC(=O)CC[C@H](NC(=O)CCCCCCCCCCCCCCCCCCC(=O)O)C(=O)O)C(=O)O)C(=O)N[C@@H](CC(N)=O)C(=O)N[C@@H]([C@@H](C)O)C(=O)N[C@@H](C)C(=O)N[C@@H]([C@@H](C)O)C(=O)N1)[C@@H](C)O)C(=O)N1CCC[C@H]1C(=O)N[C@@H](CO)C(=O)N[C@@H](CO)C(=O)N[C@H](C(=O)N[C@@H](CC(N)=O)C(=O)N[C@H](C(=O)NCC(=O)N[C@@H](CO)C(=O)N[C@@H](CC(=O)O)C(=O)N[C@H](C(=O)N[C@@H](Cc1ccc(O)cc1)C(N)=O)[C@@H](C)O)C(C)C)[C@@H](C)O
notes: Derivative of human amylin; also called compound 2
B2: N{Alpha-1}-[(4S)-4-carboxy-4-(19-carboxynonadecanoylamino)butanoyl]-[Glu14,Arg17,Pro21,Pro27,Lys34]-h-amylin (peptide)
peptide: {C20 diacid-γGlu}-KCNTATCATQRLAEFLRHSSPNFGAIPSSTNVGKNTY-NH2
modifications: disulfide 2-7
SMILES: CC[C@H](C)[C@H](NC(=O)[C@H](C)NC(=O)CNC(=O)[C@H](Cc1ccccc1)NC(=O)[C@H](CC(N)=O)NC(=O)[C@@H]1CCCN1C(=O)[C@H](CO)NC(=O)[C@H](CO)NC(=O)[C@H](Cc1c[nH]cn1)NC(=O)[C@H](CCCNC(=N)N)NC(=O)[C@H](CC(C)C)NC(=O)[C@H](Cc1ccccc1)NC(=O)[C@H](CCC(=O)O)NC(=O)[C@H](C)NC(=O)[C@H](CC(C)C)NC(=O)[C@H](CCCNC(=N)N)NC(=O)[C@H](CCC(N)=O)NC(=O)[C@@H](NC(=O)[C@H](C)NC(=O)[C@@H]1CSSC[C@H](NC(=O)[C@H](CCCCN)NC(=O)CC[C@H](NC(=O)CCCCCCCCCCCCCCCCCCC(=O)O)C(=O)O)C(=O)N[C@@H](CC(N)=O)C(=O)N[C@@H]([C@@H](C)O)C(=O)N[C@@H](C)C(=O)N[C@@H]([C@@H](C)O)C(=O)N1)[C@@H](C)O)C(=O)N1CCC[C@H]1C(=O)N[C@@H](CO)C(=O)N[C@@H](CO)C(=O)N[C@H](C(=O)N[C@@H](CC(N)=O)C(=O)N[C@H](C(=O)NCC(=O)N[C@@H](CCCCN)C(=O)N[C@@H](CC(N)=O)C(=O)N[C@H](C(=O)N[C@@H](Cc1ccc(O)cc1)C(N)=O)[C@@H](C)O)C(C)C)[C@@H](C)O
notes: Derivative of human amylin; also called compound 36
B3: N^ε1-[(4S)-4-carboxy-4-[[(4S)-4-carboxy-4-(19-carboxynonadecanoylamino)butanoyl]amino]butanoyl]-[Asp14,Arg17,Pro22,Pro26,Asp35]-h-amylin (peptide)
peptide: K([γGlu-γGlu-C20 diacid])CNTATCATQRLADFLRHSSNPFGAPLSSTNVGSDTY-NH2
modifications: disulfide 2-7; N-terminus assumed
SMILES: CC(C)C[C@H](NC(=O)[C@H](CCCNC(=N)N)NC(=O)[C@H](CCC(N)=O)NC(=O)[C@@H](NC(=O)[C@H](C)NC(=O)[C@@H]1CSSC[C@H](NC(=O)[C@@H](N)CCCCNC(=O)CC[C@H](NC(=O)CC[C@H](NC(=O)CCCCCCCCCCCCCCCCCCC(=O)O)C(=O)O)C(=O)O)C(=O)N[C@@H](CC(N)=O)C(=O)N[C@@H]([C@@H](C)O)C(=O)N[C@@H](C)C(=O)N[C@@H]([C@@H](C)O)C(=O)N1)[C@@H](C)O)C(=O)N[C@@H](C)C(=O)N[C@@H](CC(=O)O)C(=O)N[C@@H](Cc1ccccc1)C(=O)N[C@@H](CC(C)C)C(=O)N[C@@H](CCCNC(=N)N)C(=O)N[C@@H](Cc1c[nH]cn1)C(=O)N[C@@H](CO)C(=O)N[C@@H](CO)C(=O)N[C@@H](CC(N)=O)C(=O)N1CCC[C@H]1C(=O)N[C@@H](Cc1ccccc1)C(=O)NCC(=O)N[C@@H](C)C(=O)N1CCC[C@H]1C(=O)N[C@@H](CC(C)C)C(=O)N[C@@H](CO)C(=O)N[C@@H](CO)C(=O)N[C@H](C(=O)N[C@@H](CC(N)=O)C(=O)N[C@H](C(=O)NCC(=O)N[C@@H](CO)C(=O)N[C@@H](CC(=O)O)C(=O)N[C@H](C(=O)N[C@@H](Cc1ccc(O)cc1)C(N)=O)[C@@H](C)O)C(C)C)[C@@H](C)O
notes: Derivative of human amylin; also called compound 3
B4: N^ε1-[(4S)--4-carboxy-4-(19-carboxynonadecanoylamino)butanoyl]-[Glu14,Arg17,Pro21,Pro27,Pro37]-h-amylin (peptide)
peptide: K([γGlu-C20 diacid])CNTATCATQRLAEFLRHSSPNFGAIPSSTNVGSNTP-NH2
modifications: disulfide 2-7; N-terminus assumed
SMILES: CC[C@H](C)[C@H](NC(=O)[C@H](C)NC(=O)CNC(=O)[C@H](Cc1ccccc1)NC(=O)[C@H](CC(N)=O)NC(=O)[C@@H]1CCCN1C(=O)[C@H](CO)NC(=O)[C@H](CO)NC(=O)[C@H](Cc1c[nH]cn1)NC(=O)[C@H](CCCNC(=N)N)NC(=O)[C@H](CC(C)C)NC(=O)[C@H](Cc1ccccc1)NC(=O)[C@H](CCC(=O)O)NC(=O)[C@H](C)NC(=O)[C@H](CC(C)C)NC(=O)[C@H](CCCNC(=N)N)NC(=O)[C@H](CCC(N)=O)NC(=O)[C@@H](NC(=O)[C@H](C)NC(=O)[C@@H]1CSSC[C@H](NC(=O)[C@@H](N)CCCCNC(=O)CC[C@H](NC(=O)CCCCCCCCCCCCCCCCCCC(=O)O)C(=O)O)C(=O)N[C@@H](CC(N)=O)C(=O)N[C@@H]([C@@H](C)O)C(=O)N[C@@H](C)C(=O)N[C@@H]([C@@H](C)O)C(=O)N1)[C@@H](C)O)C(=O)N1CCC[C@H]1C(=O)N[C@@H](CO)C(=O)N[C@@H](CO)C(=O)N[C@H](C(=O)N[C@@H](CC(N)=O)C(=O)N[C@H](C(=O)NCC(=O)N[C@@H](CO)C(=O)N[C@@H](CC(N)=O)C(=O)N[C@H](C(=O)N1CCC[C@H]1C(N)=O)[C@@H](C)O)C(C)C)[C@@H](C)O
notes: Derivative of human amylin; also called compound 12

target: T1, human calcitonin receptor (human, UniProt P30988 25-474); test: ratio IC50 human calcitonin receptor / IC50 human amylin receptor (Assays VII and V)
T1 construct: whole, on cells; Used as membranes prepared from the transfected cells (Assay VII); also called hCTR; hCT
T1 sequence (looked up): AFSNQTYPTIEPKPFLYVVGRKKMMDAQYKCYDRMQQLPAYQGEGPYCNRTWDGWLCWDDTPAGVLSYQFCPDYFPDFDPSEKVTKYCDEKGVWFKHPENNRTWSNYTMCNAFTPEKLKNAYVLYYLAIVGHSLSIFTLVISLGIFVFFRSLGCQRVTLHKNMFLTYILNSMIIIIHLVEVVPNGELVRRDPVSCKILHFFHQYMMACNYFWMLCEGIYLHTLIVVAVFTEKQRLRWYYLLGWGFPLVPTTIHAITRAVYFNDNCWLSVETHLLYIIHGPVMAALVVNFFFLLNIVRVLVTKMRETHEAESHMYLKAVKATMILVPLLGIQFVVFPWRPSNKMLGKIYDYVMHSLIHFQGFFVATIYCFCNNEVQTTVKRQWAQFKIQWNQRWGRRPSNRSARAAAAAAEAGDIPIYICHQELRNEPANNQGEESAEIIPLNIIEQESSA
In short: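 Scintillation proximity competition binding on cell membranes at 35 ng/μL with SPA beads, in 50 mM Hepes pH 7.4, 1 mM CaCl2, 5 mM MgCl₂, 0.1% OA, 0.02% Tween20. Incubated 120 min at 25° C with shaking. IC₅₀ from one-site competition fit.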

Row | Ratio hCT/hAmylin binding | Binder
1 | 47.5 | B1
2 | 15.7 | B2
3 | 17.3 | B3
4 | 2.5 | B4

target: T2, rat amylin receptor (rat calcitonin receptor + rat RAMP 3) (rat, UniProt P32214 25-516; Q9JJ73 23-147); test: SPA competition with 125I-rat amylin, membranes of BHK cells with rat calcitonin receptor + rat RAMP3 (Assay VI)
T2 construct: whole, on cells; Used as membranes prepared from the transfected cells; also called rAmylin-R; rat amylin 3(a) receptor
T2 sequence (looked up) 1: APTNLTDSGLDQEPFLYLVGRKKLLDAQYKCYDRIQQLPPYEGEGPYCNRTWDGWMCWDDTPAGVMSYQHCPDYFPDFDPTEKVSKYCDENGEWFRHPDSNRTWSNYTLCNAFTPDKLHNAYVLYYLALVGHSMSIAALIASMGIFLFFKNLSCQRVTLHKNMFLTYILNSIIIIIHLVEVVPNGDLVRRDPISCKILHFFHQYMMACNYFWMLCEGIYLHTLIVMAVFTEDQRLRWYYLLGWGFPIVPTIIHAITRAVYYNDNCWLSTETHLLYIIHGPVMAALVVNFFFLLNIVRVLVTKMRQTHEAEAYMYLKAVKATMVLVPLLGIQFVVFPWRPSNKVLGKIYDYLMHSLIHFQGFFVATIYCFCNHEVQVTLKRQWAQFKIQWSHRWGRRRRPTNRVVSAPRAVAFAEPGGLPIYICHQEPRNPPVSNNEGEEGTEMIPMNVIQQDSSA
T2 sequence (looked up) 2: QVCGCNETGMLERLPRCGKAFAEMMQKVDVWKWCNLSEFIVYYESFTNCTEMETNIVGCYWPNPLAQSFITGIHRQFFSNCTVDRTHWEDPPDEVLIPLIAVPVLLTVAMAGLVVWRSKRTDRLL

Row | IC50 [nM] | Binder
5 | 0.295 | B1
6 | 1.86 | B2
7 | 1 | B3
8 | 0.544 | B4

target: T3, rat calcitonin receptor (rat, UniProt P32214 25-516); test: SPA competition with 125I-calcitonin, membranes of BHK cells with rat calcitonin receptor (Assay VIII)
T3 construct: whole, on cells; Used as membranes prepared from the transfected cells; also called rCTR; rat calcitonin (a) receptor
T3 sequence (looked up): T2 sequence (looked up) 1

Row | IC50 [nM] | Binder
9 | 108 | B1
10 | 60.1 | B2
11 | 16.7 | B3
12 | 2.71 | B4

target: T3, rat calcitonin receptor; test: ratio IC50 rat calcitonin receptor / IC50 rat amylin receptor (Assays VIII and VI)

Row | Ratio rCT/rAmylin binding | Binder
13 | 366 | B1
14 | 32.4 | B2
15 | 16.7 | B3
16 | 5 | B4
